This note sets out measurements from patent publication US20060204496A1 (published 2006).

In assay [1] the target is T1, AR1FLAG (solubilized receptor: extracellular domain of human AR1 with FLAG tag at the C terminus), … (human, UniProt P17181 28-436, biotin-labeled (NHS-PEO4-Biotin)).
T1 construct: extracellular domain; captured on streptavidin plates for the phage ELISA; also called biotin-labeled AR1FLAG; AR1 chain of type-I interferon receptor; not shown: FLAG tag at the C terminus
T1 sequence (looked up): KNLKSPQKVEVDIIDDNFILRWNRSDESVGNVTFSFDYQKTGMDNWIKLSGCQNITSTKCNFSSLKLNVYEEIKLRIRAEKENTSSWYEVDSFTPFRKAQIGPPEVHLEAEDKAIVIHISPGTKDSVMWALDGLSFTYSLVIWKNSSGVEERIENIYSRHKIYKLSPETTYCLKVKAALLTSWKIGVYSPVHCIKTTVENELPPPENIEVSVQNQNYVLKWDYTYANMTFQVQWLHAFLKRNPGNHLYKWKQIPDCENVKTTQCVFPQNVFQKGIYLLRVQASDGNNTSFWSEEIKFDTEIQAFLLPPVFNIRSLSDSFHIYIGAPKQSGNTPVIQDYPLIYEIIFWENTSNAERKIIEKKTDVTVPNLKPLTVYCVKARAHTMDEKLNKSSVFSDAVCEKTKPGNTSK
Description: phage ELISA, biotin-labeled AR1FLAG on streptavidin plates, anti-M13-HRP detection. The method, then: (§1) The single colonies described above were inoculated to 150 μl of 2×YTAG and cultured at 30° C. overnight. 51 μl of the cultures was inoculated to 500 μl of 2×YTAG, and incubated at 37° C. for two hours. Then 100 μl of 2×YTAG containing 2.5×10⁹ pfu of helper phage and 0.3 μl of 1 mol/l IPTG was added to the cultures, and allowed to stand at 37° C. for 30 minutes. The cultures were then incubated at 30° C. overnight, and their culture supernatant was subjected to ELISA. StreptaWell 96-well microtiter plates (Roche) were coated overnight with 100 μl of PBS containing 1.0 μg/ml biotin-labeled AR1FLAG or AR2FLAG The plates were washed with PBST to remove free antigens, and then blocked overnight with 200 μl of 2% M-PBS. 2% M-PBS was removed and the culture supernatant was added to the plates. The plates were allowed to stand for 40 minutes to bind with the antibodies. After the plates were washed, bound phages were detected using HRP-conjugated anti-M13 antibody (Amersham Pharmacia Biotech) diluted with 2% M-PBS and BM blue POD substrate (Roche). The reaction was stopped by adding sulfuric acid, and absorbance was determined at 450 nm.
(In general: An ELISA detects its analyte on a solid surface through an enzyme-linked reagent.)

Assay [2] addresses T2, AR2FLAG (solubilized receptor: extracellular domain of human AR2 with FLAG tag at the C terminus), … (human, UniProt P48551 27-243, biotin-labeled (NHS-PEO4-Biotin)).
T2 construct: extracellular domain; captured on streptavidin plates for the phage ELISA; also called biotin-labeled AR2FLAG; AR2 chain of type-I interferon receptor; not shown: FLAG tag at the C terminus
T2 sequence (looked up): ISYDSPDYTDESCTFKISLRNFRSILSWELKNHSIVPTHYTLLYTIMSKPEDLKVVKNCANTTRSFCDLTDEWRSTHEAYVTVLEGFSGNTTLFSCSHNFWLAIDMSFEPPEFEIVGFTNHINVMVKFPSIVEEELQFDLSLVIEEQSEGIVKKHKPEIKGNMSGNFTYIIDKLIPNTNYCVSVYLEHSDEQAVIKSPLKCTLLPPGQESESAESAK
The experiment in a line: phage ELISA, biotin-labeled AR2FLAG on streptavidin plates, anti-M13-HRP detection. How it is done: as §1

B1: AR1-24 (anti-AR1 chain scFv clone) (scFv, V domains shown)
VH: QVQLQQSGPELEKPGASVKISCKASGYSFSDYNMNWVKQSNGKSLEWIGNIDPYNGDTNYNQKFKGKATLTLDKSSSTAYMQLKSLTSEDSAVYFCARSRGWLLPFAYWGQGTLVTVSA
VL: DILMTQSQKFMSTSVGDRVSVTCKASQNVGINVAWYQQKPGQSPKALIYSASYRYSGVPDRFTGSGSGTDFTLTISNVQSEDLAEYFCQQYNSYPLTFGGGTKLEIKR
notes: scFv fused to f1 phage gene 3 product on phage in the ELISA
In the case of B1, in assay [1], the binding result is “binds”.

B2: AR2-31 (anti-AR2 chain scFv clone) (scFv, V domains shown)
VH: EVQLQQSGPELVRPGVSVKISCKGSSYKFTDYAMHWVKQSHAKSLEWIGVISTYYGNVKYNQKFKGKATMTVDKSSSTAYMELARLTSEDSAVYYCARSYGSYLDYWGQGTSVTVSS
VL: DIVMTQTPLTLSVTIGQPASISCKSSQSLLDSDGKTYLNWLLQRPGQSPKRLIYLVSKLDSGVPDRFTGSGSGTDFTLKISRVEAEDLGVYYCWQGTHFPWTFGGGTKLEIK
notes: as for B1
Take B2: the binding result in assay [2] is recorded as “binds”.

B3: AR2-44 (anti-AR2 chain scFv clone) (scFv, V domains shown)
VH: QVQLQQSEAELVRPETSVKVSCKASGYSFRNYLIEWVKQRPGQGLEWIGVINPGSGNTKYNEKFKGKATLTADKSSSTAYMQLSSLTSDDSAVYFCARDGYYLGTMDYWGQGTSVTVSS
VL: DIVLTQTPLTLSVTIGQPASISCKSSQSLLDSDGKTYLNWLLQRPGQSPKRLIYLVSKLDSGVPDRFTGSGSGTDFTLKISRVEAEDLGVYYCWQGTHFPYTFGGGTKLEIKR
notes: as for B1
B3: in assay [2], the binding result is on record as “binds”.

B4: AR2-33 (anti-AR2 chain scFv clone) (scFv, V domains shown)
VH: QVQLQQSGAELVRPGTSVKVSCKASGYAFINNLIEWVQQRPGQGLEWIGVINPGSGNVKYNEKFKGKATLTADKSSSTAYMQLSSLTSDDSAVYFCARDGYYLGTMDHWGQGTSVTVSS
VL: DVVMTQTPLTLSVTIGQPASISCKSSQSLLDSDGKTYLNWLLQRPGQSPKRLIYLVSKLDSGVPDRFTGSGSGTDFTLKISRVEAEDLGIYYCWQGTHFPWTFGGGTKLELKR
notes: as for B1
Consider B4, for which the binding result in assay [2] is on record as “binds”.

B5: AR2-22 (anti-AR2 chain scFv clone) (scFv, V domains shown)
VH: QVQLQQSGPELVRPGVSVKISCKGSGYRFTDYAIHWVKQSHAKSLEWIGVISTYYGNTRYNQKFKGKATMTVDKSSSTAYMELASLTSEDSVIYYCARSGGSLMDYWGQGTSVTVSS
VL: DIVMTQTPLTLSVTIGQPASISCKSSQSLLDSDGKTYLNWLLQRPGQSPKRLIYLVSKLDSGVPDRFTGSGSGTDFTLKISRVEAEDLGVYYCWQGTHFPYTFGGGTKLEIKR
notes: as for B1
Consider B5, for which the binding result in assay [2] is “binds”.

B6: AR2-40 (anti-AR2 chain scFv clone) (scFv, V domains shown)
VH: QVQLQQSGPELVRPGVSVKISCKGSSYKFTDYAMHWVKQSHAKSLEWIGVISTYYGNVKYNQKFKGKATMTVDKSSSTAYMELARLTSEDSAVYYCARSSGSYLDYWGQGTSVTVSS
VL: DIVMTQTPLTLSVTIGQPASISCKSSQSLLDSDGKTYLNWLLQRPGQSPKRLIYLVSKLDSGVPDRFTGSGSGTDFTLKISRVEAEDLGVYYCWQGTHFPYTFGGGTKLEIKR
notes: as for B1
In the case of B6, the binding result in assay [2] is reported as “binds”.

B7: AR2-43 (anti-AR2 chain scFv clone) (scFv, V domains shown)
VH: QVQLQQSGPELVRPGVSVKISCKGSGYTFTDYAMHWVKQSHAKSLEWIGVISTYYSNTRYNQKFKGKATMTVDKSSSTAYMELARLTSEDSAIYYCVRSGGSNMDYWGQGTSVTVSS
VL: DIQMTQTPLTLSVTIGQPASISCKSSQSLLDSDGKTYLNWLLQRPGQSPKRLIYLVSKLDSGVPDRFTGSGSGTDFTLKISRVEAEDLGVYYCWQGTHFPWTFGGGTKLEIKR
notes: as for B1
With B7, the binding result in assay [2] is recorded as “binds”.

B8: AR2-14 (anti-AR2 chain scFv clone) (scFv, V domains shown)
VH: QVQLQQSGAELVRPGTSVKVSCKASGYAFTNYLIEWVKQRPGQGPEWIGVINPGSGNIRYNGKFKGKATLTADKSSSTAYMQLSSLTSDDSAVYFCARDAYYVGAMDYWGQGTSVTVSS
VL: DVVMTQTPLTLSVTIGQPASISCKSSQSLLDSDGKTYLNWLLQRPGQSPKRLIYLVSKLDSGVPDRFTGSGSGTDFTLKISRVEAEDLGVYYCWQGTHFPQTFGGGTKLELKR
notes: as for B1
For the molecule B8, the binding result in assay [2] is “binds”.

B9: AR1-41 (anti-AR1 chain scFv clone) (scFv, V domains shown)
VH: QVQLKQSGAELVRPGASVRLSCKASGYTFTFYWINWIKQRPEQGLEWIGRIDPYDSETRYNQKFKDKAILTVDKYSSTAYMQLSSLTSEDSAVYYCAKGVYDGHWFFDVWGAGTSVTVSS
VL: DIVMTQSHKFMSTSVGDRVSITCKASQDVSTAVAWYQQKPGQSPKLLIYSASYRYTGVPARFSGSGSGTDFTFTISSVQTEDLAVYYCQQHYRTPPTFGGGTKLELKR
notes: In the phage ELISA it stood as a mouse scFv fused to the f1 phage gene 3 product on phage
For B9, the binding result in assay [1] is “binds”.

B10: AR2-37 (anti-AR2 chain scFv clone) (scFv, V domains shown)
VH: QVQLQQSGPELVRPGVSVKISCKGSGYTFTDYAIHWVRQSHAQSLEWIGVIGTYSGNRNYNQKFKGKATMTVDKSSSTAYMELARLTSEDSAIYYCARSAGYSLDFWGQGTSVTVSS
VL: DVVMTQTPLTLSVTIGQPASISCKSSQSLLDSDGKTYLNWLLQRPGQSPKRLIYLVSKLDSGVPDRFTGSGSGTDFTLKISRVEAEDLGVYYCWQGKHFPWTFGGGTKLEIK
notes: as for B1
Regarding B10, in assay [2], the binding result is reported as “binds”.

B11: AR2-13 (anti-AR2 chain scFv clone) (scFv, V domains shown)
VH: QVQLQQSGGELVRPGTSVKVSCKASGYAFTNYLIEWVKQRPGQGLDWIGMINPGSGGTKCNKKFKGKVTLTADKSSSTAYMHLSSLTSDDSAVYFCARSGWVSAMDYWGQGTSVTVSS
VL: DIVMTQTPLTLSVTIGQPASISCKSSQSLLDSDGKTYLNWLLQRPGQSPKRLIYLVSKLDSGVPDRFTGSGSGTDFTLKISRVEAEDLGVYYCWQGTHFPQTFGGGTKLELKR
notes: as for B1
In the case of B11, in assay [2], the binding result is recorded as “binds”.

B12: AR2-45 (anti-AR2 chain scFv clone) (scFv, V domains shown)
VH: QVQLQQSGVELVRPGTSVKVSCKASGYAFTNYLIEWVKQRPGQGLDWIGMINPGSGGTKCNKKFKGKVTLTADKSSSTAYMHLSSLTSDDSAVYFCARSGWVYAMDYWGQGTSVTVSS
VL: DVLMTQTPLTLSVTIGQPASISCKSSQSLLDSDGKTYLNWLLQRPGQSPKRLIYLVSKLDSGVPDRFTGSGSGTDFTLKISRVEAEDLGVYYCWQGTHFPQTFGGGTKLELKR
notes: as for B1
With B12, in assay [2], the binding result is given as “binds”.
